Publication PMC2777425

Molecular target: T1, K752G844 (winged-helix domain) (UniProt Q54324 752-844)
T1 sequence: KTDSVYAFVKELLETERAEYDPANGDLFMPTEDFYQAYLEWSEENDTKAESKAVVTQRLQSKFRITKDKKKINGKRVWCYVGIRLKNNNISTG
Test: fluorescence anisotropy

B1: 17-mer ss (ssDNA)
DNA: TCTTCTGTGCACTCTTC
- apparent K (half saturation): 1600 nM
